Reference: patent publication US10526416B2, “Anti-HER3 antibodies and uses of same” (Yeda Research and Development Co. Ltd., priority 2014, dated 2020)

Key:
BxPC3 cells = test: MTT assay on BxPC3 cells in culture; assay type: cell-based, human; conditions: 3 days
Procedure: FIGS. 15A-F show the effects of a mixture of two anti HER3 mAbs, in vivo on BxPC3 cell xenografts and in vitro. (FIGS. 15A-C) CD1-Nude mice were grafted subcutaneously with 5×10^6 BxPC3 cells. Once tumors became palpable (after 13 days), the mice were randomized into group of 8 mice and treated every 3 days for 5 weeks. The control group (CTRL) was injected intra-peritoneally (IP) with 200 μl PBS. The other groups were treated with mAb alone or in combination at a final concentration of 0.2 mg/0.2 ml of PBS per mouse. The mice were weighted once a week and the tumors measured twice a week. An average tumor size of 7-8 mice (+/−SEM) is shown. (FIGS. 15D-F) Proliferation assays using MTT were performed on BxPC-3. 5,000 cells per well were plated the day before and treated for 72 h with the indicated mAb treatment. Decreasing concentrations of the indicated mAb (alone or in combination) were used in medium supplemented with 1% serum and NRG (10 ng/ml).
To determine if the combination of NG33 mAb with another anti-HER3 mAb is more efficient than using NG33 alone, the combination of two mAbs, NG33 and XC252, was tested on several tumor cell lines, which were grafted subcutaneously (gastric: N87, lung: A549, pancreatic: BxPC3, ovarian: OVCAR-5, and head and neck: CAL-27, FIG. 14). This pilot was performed with 3 mice per group. Mice were injected twice a week with the mAb combination or with PBS. The best responder of these in vivo models for solid tumor growth was the BxPC3 xenograft model. […] This experiment was performed on 7 to 8 mice per group. The mice were treated every 3 days with PBS, each mAb alone or a mAb combination, for 5 weeks (0.2 mg/injection). […] In order to reinforce the in vivo data, the cytotoxicity of each mAb alone or in combination with NG33 was tested on BxPC3 cells in culture (FIGS. 15D, 15E and 15F). Decreasing concentrations of mAb were used and a MTT assay was performed following 3 days of treatment. […] On the contrary, XC252 used alone has a […] cytotoxic impact on BxPC3 proliferation leading to 60% inhibition of cell survival at high concentration.

IgB3 = target: T1, IgB3 (Homo sapiens, UniProt P21860); test: Antibody competition assay with Lumi4(Tb)-labeled NG33 on IgB3-coated plates; assay type: binding; conditions: NG33-K2 1 nM
T1 construct: To produce IgB3 (recombinant HER3 extracellular domain fused to a human IgG Fc domain); made in house
Procedure: FIGS. 12A-D show a combination of two mAbs directed to two different epitopes of HER3. (FIGS. 12A and 12B) The antibodies NG33 and XC252 were labeled with the fluorescent dye Lumi4® Tb Cryptate (K2). 96 well-plate were coated with IgB3 (1.5 μg/ml), blocked with PBS-BSA and incubated for 1 h with various concentrations of mAbs under gentle shaking at RT. The labeled mAb, NG33-K2 (FIG. 12A) or XC252-K2 (FIG. 12B), was then added at 1 nM final concentration. After ah incubation, the plate was washed 4 times with KREBS buffer, and the fluorescence intensity at 610 nm was measured using a fluorescence microplate reader. (FIG. 12C) The various anti-HER3 mAb combinations were studied for their ability to trigger HER3 degradation using N87 cells. Cells were treated for 2 h at 37° C. with mAb (10 μg/ml). After cell lysis and protein extraction, the samples were subjected to immunoblotting with the indicated antibodies. (FIG. 12D) The combination's capacity to modulate NRG-induced phosphorylation of HER3, AKT and ERK was evaluated using N87 cells. After 20 min treatment at 37° C. with 10 μg/ml of mAbs, NRG (20 ng/ml) was added to the cells for 10 min. The cells were then lysed, and equal quantities of lysate protein were electrophoresed before immunoblotting, as indicated.
Agent labeling was performed by Cisbio. […] Following 1 h incubation, the plate was washed 4 times with KREBS buffer (146 mM NaCl, 4 mM KCl, 0.5 mM MgCl2, 1 mM CaCl2, 10 mM Hepes, 1 gr/L glucose, and 1 mg/mL albumin), and the fluorescent intensity (excitation: 488 nm, emission: 610 nm) was measured using a fluorescence microplate reader. […] Finally, following two washes with KREBS buffer, the fluorescence intensity was measured at 670 nm (excitation: 620 nm).
Combinations of antibodies directed against two different epitopes of the same receptor, as has been previously shown, can improve the effect of treatment with a single mAb (28, 29). […] First, it was determined which antibody from the anti-HER3 series targets an epitope distinct from that targeted by NG33. […]

T1 sequence (P21860 20-643 limits assumed): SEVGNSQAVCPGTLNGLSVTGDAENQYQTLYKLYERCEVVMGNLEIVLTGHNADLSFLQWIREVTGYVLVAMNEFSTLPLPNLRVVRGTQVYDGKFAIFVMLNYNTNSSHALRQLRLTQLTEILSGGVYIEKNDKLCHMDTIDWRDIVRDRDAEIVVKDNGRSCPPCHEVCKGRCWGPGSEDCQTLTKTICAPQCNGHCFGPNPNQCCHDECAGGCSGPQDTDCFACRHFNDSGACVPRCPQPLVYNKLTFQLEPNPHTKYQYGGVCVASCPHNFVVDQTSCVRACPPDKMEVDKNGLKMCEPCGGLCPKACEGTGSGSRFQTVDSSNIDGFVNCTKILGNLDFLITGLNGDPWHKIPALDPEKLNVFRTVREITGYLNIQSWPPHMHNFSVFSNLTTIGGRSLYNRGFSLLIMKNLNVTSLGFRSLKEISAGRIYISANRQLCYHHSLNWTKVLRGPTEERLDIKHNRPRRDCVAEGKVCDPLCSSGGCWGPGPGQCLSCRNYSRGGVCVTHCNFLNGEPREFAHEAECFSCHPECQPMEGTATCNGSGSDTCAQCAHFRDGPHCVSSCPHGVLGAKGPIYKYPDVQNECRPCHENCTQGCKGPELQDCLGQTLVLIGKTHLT
T1 sequence (P01857 99-330 partner limits assumed): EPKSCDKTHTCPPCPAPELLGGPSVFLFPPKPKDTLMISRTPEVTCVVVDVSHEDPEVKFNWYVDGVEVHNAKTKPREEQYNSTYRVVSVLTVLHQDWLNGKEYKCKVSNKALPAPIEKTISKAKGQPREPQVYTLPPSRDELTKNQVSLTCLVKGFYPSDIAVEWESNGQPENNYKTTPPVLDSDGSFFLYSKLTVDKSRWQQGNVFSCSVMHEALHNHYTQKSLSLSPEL

Molecule | inhibition of cell survival (BxPC3 cells; high concentration, 1% serum, NRG 10 ng/ml) | effect on binding of Lumi4(Tb)-labeled NG33 to IgB3 (IgB3) | effect on BxPC3 proliferation/survival (in words) (BxPC3 cells)
XC252: anti-HER3 mAb generated as described in Chen X, et al. (1996); heavy and light chain SEQ ID NOs: 49 and 53 (antibody, V domains shown, VH chain of XC252 polypeptide; VL chain of XC252 polypeptide) VH: EVQLQQSGAELVRPGVSVKISCKGSGYTFTDYAMHWVKQSHAKSLEWIGVISTYYGDPRDNQKFKGKATMTVDKSSSTAYMELARLTSEDSAIYYCARGDYDWYAIDYWGQGTSVTVSS VL: DVVMTQTPLSLPVSLGDQASISCRSSQSIVHSDGNTYLEWYLQKPGQSPKLLIYKVSNRFSGVPDRFSGSGSGTDFTLKISRVEAEDLGVYYCFQGSHVPPTFGGGTKLEIK | 60% | did not alter NG33 binding | 
NG83: anti-HER3 mAb; light chain CDRs SEQ ID NOs: 7-9, heavy chain CDRs 10-12 (antibody, V domains shown, VH chain of NG83 polypeptide; VL chain of NG83 polypeptide) VH: QIQLVQSGPELKKRGETVKISCKASGYTFTNYGMNWVRQAPGKGLKCMGWINTYAGEPTYADDFKGRFAFSLDSSASTAYLQINNLKNEDMATYFCARGGITGAMDYWGQGTSVTVSS VL: DVVMTQKTSSLSTSLGDRVTISCRASQDIRNYLNWYQQKPDGTVKLLIYYTSRLHSGVPSRFSGSGSGTDYSLTISDLEQEDIATYFCQQGNTLPWTFGGGTKLAIK |  | potentiated NG33 binding to IgB3 | did not interfere with cell proliferation
